The values below come from US20100285988A1.

Like-named read-outs stand apart in the source and are kept apart here.

Assay [1] addresses T1, γ-secretase (human; HeLa cell membrane / solubilized HeLa membrane; endogenous in HEK293 cells) (human), P49768. Particulars: modification not given.
The target of assay [2] is T1, γ-secretase (human; HeLa cell membrane …). As to conditions: modification not given. This is another data set of the same source.

LVFFAEDV yielded an IC50 in assay [1] of 8.9 µM.
With KLVFFAED, the IC50 in assay [2] came out at 14 µM.
